Laboratory results published in patent publication US20240052048A1 (SUZHOU QIN PHARMACEUTICALS, published 2024).
Read-outs that look alike come from different tables or passages of the source.

T1: human-APRIL-Fc (human, UniProt O75888 115-250, limits assumed)
T1 construct: Bought from ACRO Biosystems, APL-H5267; also called human APRIL protein; ACRO Biosystems APL-H5267; not shown: Fc tag
T1 sequence (looked up): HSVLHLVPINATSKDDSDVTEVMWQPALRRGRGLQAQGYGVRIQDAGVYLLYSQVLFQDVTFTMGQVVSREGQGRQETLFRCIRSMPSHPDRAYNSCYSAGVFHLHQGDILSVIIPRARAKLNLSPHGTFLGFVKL

T2: human-BCMA-Fc (human, UniProt Q02223 1-54)
T2 construct: Bought from ACRO Biosystems, catalog BC7-H5254; also called ACRO Biosystems BC7-H5254; not shown: Fc tag
T2 sequence (looked up): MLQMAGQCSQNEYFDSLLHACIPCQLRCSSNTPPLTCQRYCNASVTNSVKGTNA

T3: human BCMA on BCMA-HEK293 cells (human, UniProt Q02223 1-184)
T3 construct: whole, on cells; also called human BCMA-HEK293 cells; HEK293 cells overexpressing human BCMA
T3 sequence (looked up): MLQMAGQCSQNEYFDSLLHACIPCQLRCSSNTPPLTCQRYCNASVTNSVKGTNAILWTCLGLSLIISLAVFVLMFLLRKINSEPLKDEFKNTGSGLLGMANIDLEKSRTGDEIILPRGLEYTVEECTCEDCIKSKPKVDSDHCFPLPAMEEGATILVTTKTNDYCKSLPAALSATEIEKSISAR

T4: human-BCMA-His (human, UniProt Q02223 1-54)
T4 construct: Bought from ACRO Biosystems, catalog BCA-H522y; also called ACRO Biosystems BCA-H522y; not shown: His tag
T4 sequence (looked up): T2 sequence (looked up)

T5: human BCMA on H929 cells (human, UniProt Q02223 1-184)
T5 construct: whole, on cells; also called human myeloma cell line H929 cells expressing BCMA
T5 sequence (looked up): T3 sequence (looked up)

T6: Biotin-labeled human BCMA (human, UniProt Q02223 1-54, limits assumed, Biotin-labeled (site not stated))
T6 sequence (looked up): T2 sequence (looked up)

B1: human BCMA (recombinant antigen, tag not stated for the assay) (receptor, UniProt Q02223 1-54, looked up)
chain: T2 sequence (looked up)
notes: The ELISA and screening sections say only 'human BCMA'; also called human BCMA antigen
B2: GSK2857916 (positive control antibody, not coupled to the toxin molecule) (antibody, V domains shown)
VH: QVQLVQSGAEVKKPGSSVKVSCKASGGTFSNYWMHWVRQAPGQGLEWMGATYRGHSDTYYNQKFKGRVTITADKSTSTAYMELSSLRSEDTAVYYCARGAIYDGYDVLDNWGQGTLVTVSS
VL: DIQMTQSPSSLSASVGDRVTITCSASQDISNYLNWYQQKPGKAPKLLIYYTSNLHSGVPSRFSGSGSGTDFTLTISSLQPEDFATYYCQQYRKLPWTFGQGTKLEIK
notes: also called Belantamab mafodotin antibody; positive antibody

Columns and labels:
[1] = target: T1, human-APRIL-Fc; assay: ELISA (OD450), plate coated with APRIL 1 µg/ml, human BCMA titrated up to 10 µg/mL; EC50 table in the figure
[2] = target: T1, human-APRIL-Fc; assay: ELISA (OD450), plate coated with APRIL 2 µg/ml, human BCMA titrated up to 10 µg/mL; EC50 table in the figure
[3] = target: T1, human-APRIL-Fc; assay: ELISA (OD450), plate coated with APRIL 4 µg/ml, human BCMA titrated up to 10 µg/mL; EC50 table in the figure
[4] = target: T1, human-APRIL-Fc; assay: ELISA (OD450), plate coated with APRIL 8 µg/ml, human BCMA titrated up to 10 µg/mL; EC50 table in the figure
[5] = target: B1; assay: ELISA (OD450) on coated human BCMA; EC50 table in the figure
[6] = target: B1; assay: as above; remark: listed apart in the source
[7] = target: B1; assay: as above; remark: listed apart in the source
[8] = target: T7, monkey BCMA (recombinant antigen, tag not stated for the assay) (monkey, UniProt A0A2K5UD97 1-53); assay: ELISA (OD450) on coated monkey BCMA; EC50 table in the figure
T7 construct: The ELISA, screening and BLI sections say only 'monkey BCMA' or 'monkey BCMA protein'; also called monkey BCMA protein; monkey BCMA antigen; not shown: The carrier tag (human IgG1 Fc or His tag) of the bought ACRO antigen

[9] = target: T7, monkey BCMA (recombinant antigen, tag …); assay: as above; remark: listed apart in the source
[10] = target: T7, monkey BCMA (recombinant antigen, tag …); assay: as above; remark: listed apart in the source
[11] = target: T2, human-BCMA-Fc; assay: BLI (Octet RED96), antibody on FAB2G sensor, human BCMA-Fc at 200, 50, 12.5 nM
[12] = target: T7, monkey BCMA (recombinant antigen, tag …); assay: BLI (Octet RED96), antibody on FAB2G sensor, monkey BCMA protein at 200, 50, 12.5 nM
[13] = target: T8, monkey BCMA on BCMA-CHO cells (cynomolgus monkey, UniProt A0A2K5UD97 1-183); assay: flow cytometry (MFI) on CHO cells expressing monkey BCMA; EC50 table in the figure
T8 construct: whole, on cells; also called monkey BCMA-CHO cells; CHO cells overexpressing monkey BCMA

[14] = target: T3, human BCMA on BCMA-HEK293 cells; assay: flow cytometry (MFI) on HEK293 cells expressing human BCMA; EC50 table in the figure
[15] = target: T3, human BCMA on BCMA-HEK293 cells; assay: as above; remark: listed apart in the source
[16] = target: T2, human-BCMA-Fc; assay: ELISA (OD450), GSK2857916 titrated up to 10 µg/mL on Human BCMA-Fc; EC50 table in the figure
[17] = target: T4, human-BCMA-His; assay: ELISA (OD450), GSK2857916 titrated up to 10 µg/mL on Human BCMA-His; EC50 table in the figure
[18] = target: T8, monkey BCMA on BCMA-CHO cells; assay: flow cytometry (MFI) on CHO cells expressing monkey BCMA; EC50 table in the figure; curve still rising at 10 µg/mL
[19] = target: T5, human BCMA on H929 cells; assay: flow cytometry (MFI) on myeloma cell line H929 expressing BCMA; EC50 table in the figure; curve still rising at about 60 µg/mL
[20] = target: T6, Biotin-labeled human BCMA; assay: blocking ELISA (OD450): human BAFF coated, antibody premixed with Biotin-labeled human BCMA; blocked ligand BAFF; IC50 table in the figure
[21] = target: T6, Biotin-labeled human BCMA; assay: as above; remark: listed apart in the source
[22] = target: T6, Biotin-labeled human BCMA; assay: as above; remark: listed apart in the source
[23] = target: T6, Biotin-labeled human BCMA; assay: blocking ELISA (OD450): human APRIL coated, antibody premixed with Biotin-labeled human BCMA; blocked ligand APRIL; IC50 table in the figure
[24] = target: T6, Biotin-labeled human BCMA; assay: as above; remark: listed apart in the source
[25] = target: T6, Biotin-labeled human BCMA; assay: as above; remark: listed apart in the source

T7 sequence (A0A2K5UD97 entry or part of it limits assumed): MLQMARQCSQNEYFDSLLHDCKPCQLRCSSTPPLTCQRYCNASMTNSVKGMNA
T8 sequence (A0A2K5UD97 entry or part of it): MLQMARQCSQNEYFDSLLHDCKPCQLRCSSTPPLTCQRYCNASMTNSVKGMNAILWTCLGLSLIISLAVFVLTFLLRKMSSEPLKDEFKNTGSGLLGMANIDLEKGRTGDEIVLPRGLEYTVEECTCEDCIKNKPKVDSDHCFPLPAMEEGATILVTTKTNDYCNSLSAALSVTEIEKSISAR

Binder: B1
- EC50 [1]: 1.07 mg/L
- EC50 [2]: 1.28 mg/L
- EC50 [3]: 1.57 mg/L
- EC50 [4]: 2.05 mg/L

Binder: B2
- EC50 [5]: 0.514 mg/L
- EC50 [6]: 0.772 mg/L
- EC50 [7]: 0.642 mg/L
- EC50 [8]: 0.341 mg/L
- EC50 [9]: 0.749 mg/L
- EC50 [10]: 0.862 mg/L
- Kd [11]: 0.0539 nM
- koff [11]: 1.19e-05 s⁻¹
- kon [11]: 220000 M⁻¹ s⁻¹
- Kd [12]: 0.352 nM
- koff [12]: 0.000111 s⁻¹
- kon [12]: 317000 M⁻¹ s⁻¹
- EC50 [13]: 2.88 mg/L
- EC50 [14]: 0.293 mg/L
- EC50 [15]: 1.09 mg/L
- EC50 [16]: 0.304 mg/L
- EC50 [17]: 0.77 mg/L
- EC50 [18]: 7.22 mg/L
- EC50 [19]: 6.8 mg/L
- IC50 [20]: 1.41 mg/L
- IC50 [21]: 1.37 mg/L
- IC50 [22]: 1.36 mg/L
- IC50 [23]: 1.6 mg/L
- IC50 [24]: 1.51 mg/L
- IC50 [25]: 1.79 mg/L
